Laboratory results as given in patent US20260078185A1 (published 2026).
Where two headings read alike, the source gives them in different places.

T1: mouse VISTA recombinant protein (Sino Biological Inc., Cat. #51550-M08H), biotinylated (mouse, UniProt Q9D659 33-191, biotinylated using EZ-LINK NHS-PEG4 biotin)
T1 chain: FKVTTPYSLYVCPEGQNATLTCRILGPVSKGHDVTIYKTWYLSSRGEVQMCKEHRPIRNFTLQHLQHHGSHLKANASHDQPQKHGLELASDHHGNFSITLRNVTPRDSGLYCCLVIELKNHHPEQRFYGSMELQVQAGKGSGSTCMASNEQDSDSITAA


Legend:
[1] = molecular target: T1, mouse VISTA recombinant protein (Sino …); experiment: Octet (BLI)
[2] = molecular target: T2, Human VISTA recombinant protein (Sino Biological Inc., Cat. #13482-H08H), biotinylated (UniProt Q9H7M9 33-194, biotinylated using EZ-LINK NHS-PEG4 biotin); experiment: Octet BLI
[3] = molecular target: T2, Human VISTA recombinant protein (Sino …); experiment: Octet BLI; remark: listed apart in the source
[4] = molecular target: T1, mouse VISTA recombinant protein (Sino …); experiment: Octet (BLI)
[5] = molecular target: T2, Human VISTA recombinant protein (Sino …); experiment: Octet BLI; remark: listed apart in the source

T2 sequence (Q9H7M9 33-194): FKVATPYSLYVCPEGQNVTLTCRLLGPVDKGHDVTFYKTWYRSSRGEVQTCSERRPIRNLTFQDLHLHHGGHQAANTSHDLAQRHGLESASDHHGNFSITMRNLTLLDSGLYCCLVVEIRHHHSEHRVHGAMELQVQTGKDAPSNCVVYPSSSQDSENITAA

Row | Binder | Kd [1] [µM] | Kd [2] [µM] | Kd [3] [µM] | Kd [4] [µM] | Kd [5] [µM]
1 | 9F9 parental anti-VISTA antibody (VH0/VL0) (antibody, V domains shown) VH: QVQFQQSGAELARPGASVKLSCKASGYTFTGYWMQWVKQRPGQGLEWIGAIYPGDGDTRYSQKFKGKVTLTADKSSSTAYMQLSSLASEDSAVYYCARRDYGAWFAYWGQGTLVTVSA VL: DIKVTQSPSSMYASLGERVTITCKASQDINSYLSWFQQKPGKSPKTLIYRANRLVDGVPSRFSGSGSGQDYSLTISSLDYEDMGIYYCLQYDEFPYTFGGGTKLEIK | 0.0122 | 0.00945 | 0.00865 | 0.00503 | 
2 | 9F9 humanized anti-VISTA antibody VH9/VL9 (antibody, V domains shown) VH: QVQFVQSGAEVKKPGSSVKVSCKASGYTFSGYWMQWVKQAPGQGLEWIGAIYPGDGDTRYSQKFKGKVTLTADESTSTAYMELSSLRSEDTAVYYCARRDYGAWFAYWGQGTLVTVSS VL: DIKVTQSPSSLSASVGDRVTITCKASQDINSYLSWYQQKPGKAPKTLIYRANRLVDGVPSRFSGSGSGQDYTFTISSLQPEDIATYYCLQYDEFPYTFGQGTKVEIK | 0.0239 | 0.0266 | 0.0377 | 0.607 | 
3 | 9F9 humanized anti-VISTA antibody VH7/VL7 (antibody, V domains shown) VH: QVQFVQSGAEVKKPGASVKVSCKASGYTFTGYWMQWVKQAPGQRLEWIGAIYPGDGDTRYSQKFKGKVTLTADTSASTAYMELSSLRSEDTAVYYCARRDYGAWFAYWGQGTLVTVSS VL: DIKVTQSPSSLSASVGDRVTITCKASQDINSYLSWYQQKPGKAPKTLIYRANRLVDGVPSRFSGSGSGQEYTLTISSLQPEDFATYYCLQYDEFPYTFGQGTKVEIK |  |  | 0.0567 | 0.866 | 
4 | 9F9-VH8/VL8 (antibody, V domains shown) VH: QVQFVQSGAEVKKPGASVKVSCKASGYTFTGYWMQWVKQAPGQGLEWIGAIYPGDGDTRYSQKFKGKVTLTADKSTSTAYMELSSLRSEDTAVYYCARRDYGAWFAYWGQGTLVTVSS VL: DIKVTQSPSSLSASVGDRVTITCKASQDINSYLSWYQQKPEKAPKTLIYRANRLVDGVPSRFSGSGSGTDFTLTISSLQPEDFATYYCLQYDEFPYTFGQGTKVEIK |  |  | 0.0366 | 0.336 | 
5 | 9F9 humanized anti-VISTA antibody VH15/VL15 (antibody, V domains shown) VH: QVQLVQSGAEVMKPGASVKLSCKASGYTFTGYWMQWVKQRPGQGLEWIGAIYPGDGDTRYSQKFKGKATMTADTSISTAYMELSRLRSDDSAVYYCARRDYGAWFAYWGAGTTVTVSS VL: DIVMTQSPSSLSASVGERVTITCKASQDINSYLSWFQQKPGKAPKTLIYRANRLVDGVPSRFSGSGSGTDFTFTISSVQPEDLAIYYCLQYDEFPYTFGGGTKLEIK | 0.0208 | 0.0244 |  |  | 
6 | 9F9 humanized anti-VISTA antibody VH14/VL15 (antibody, V domains shown) VH: QVQLVQSGAEVMKPGASVKISCKASGYTFTGYWMQWVRQRPGQGLEWIGAIYPGDGDTRYSQKFKGKATMTADTSISTAYMELSRLRSDDTAVYYCARRDYGAWFAYWGAGTTVTVSS VL: DIVMTQSPSSLSASVGERVTITCKASQDINSYLSWFQQKPGKAPKTLIYRANRLVDGVPSRFSGSGSGTDFTFTISSVQPEDLAIYYCLQYDEFPYTFGGGTKLEIK | 0.0175 | 0.0203 |  |  | 

Results, then the binder that gave them:

Row | Kd [1] [µM] | Kd [2] [µM] | Kd [3] [µM] | Kd [4] [µM] | Kd [5] [µM] | Binder
7 |  |  |  |  | 0.00437 | 20E4 parental anti-VISTA antibody (VH0/VL0) (antibody, V domains shown) VH: QVQLQQSGAELMKPGASVKISCKATGYTFSSSWVEWVRQRPGHGLEWIGEIFPGSGSTHYNEKFKGKATFTADTSSNTAYLQLSSLTSDDSAVYYCARRPPGWFFDVWGAGTTVTVSS VL: DIVMTQSHKFMSTSVGDRVSITCKASQDVSTDVAWYQQKPGQSPKLLIYSASYRYTGVPDRFTGSGSGTDFTFTISSVQAEDLAVYYCQQHYSTPWTFGGGTKLEIK
8 |  |  |  |  | 0.00354 | 20E4-VH1/VL1 (antibody, V domains shown) VH: QVQLVQSGAEVKKPGASVKVSCKASGYTFSSSWVEWVRQAPGQGLEWMGEIFPGSGSTHYNEKFKGRVTMTRDTSISTAYMELSRLRSDDTAVYYCARRPPGWFFDVWGQGTTVTVSS VL: DIQMTQSPSSLSASVGDRVTITCKASQDVSTDVAWYQQKPGKAPKLLIYSASYRYTGVPSRFSGSGSGTDFTLTISSLQPEDFATYYCQQHYSTPWTFGGGTKVEIK
9 |  |  |  |  | 0.00309 | 20E4-VH3/VL3 (antibody, V domains shown) VH: QVQLVQSGAEVMKPGASVKISCKATGYTFSSSWVEWVRQRPGQGLEWIGEIFPGSGSTHYNEKFKGKATMTADTSISTAYMELSRLRSDDTAVYYCARRPPGWFFDVWGAGTTVTVSS VL: DIVMTQSPSSLSASVGDRVTITCKASQDVSTDVAWYQQKPGKAPKLLIYSASYRYTGVPSRFSGSGSGTDFTFTISSVQPEDLAVYYCQQHYSTPWTFGGGTKLEIK
10 |  |  |  |  | 0.00622 | 20E4-VH4/VL4 (antibody, V domains shown) VH: QVQLVQSGAEVKKPGASVKVSCKASGYTFTSSWVEWVRQAPGQGLEWMGEIFPGSGSTHYNEKFKGRVTMTRDTSTSTVYMELSSLRSEDTAVYYCARRPPGWFFDVWGQGTMVTVSS VL: DIVMTQSPDSLAVSLGERATINCKASQDVSTDVAWYQQKPGQPPKLLIYSASYRYTGVPDRFSGSGSGTDFTLTISSLQAEDVAVYYCQQHYSTPWTFGGGTKVEIK
